According to patent US20170182047A9, “Post-Translational Regulation of Catalytic Activities of Cytochrome P450 46A1 and Uses Thereof” (The Board of Regents of the University of Texas System, priority 2007, published 2017):

Key:
[1] = substrate: CC(C)CCC[C@@H](C)[C@H]1CC[C@H]2[C@@H]3CC=C4C[C@@H](O)CC[C@]4(C)[C@H]3CC[C@]12C; experiment: purified protein, by the assay type; conditions: other: compound as substrate, 37.0 °C
Protocol: (§1) The ability of recombinant CYP46A1 to metabolize CH-3S was tested using the reconstituted with cytochrome P450 reductase in vitro system. After termination of the enzyme reaction, the substrate and products were extracted, solvolyzed, converted into trimethylsilyl ethers and analyzed by gas chromatography-mass spectrometry as described (23). […] The reaction conditions were optimized for the formation of only one product.
(§2) The reconstituted system (1 ml) contained 0.1-0.25 μM P450, 0.5 μM NADPH cytochrome P450 oxidoreductase, varying concentrations of cold substrate (1-75 μM), 250,000 cpm of radiolabeled substrate, and 2U of catalase. […] The organic phase was isolated, evaporated, dissolved in acetonitrile, and subjected to HPLC. […] Substrate metabolism was <18% and linear with reaction time and enzyme concentration.

[2] = substrate: CC(C)CCC[C@@H](C)[C@H]1CC[C@H]2[C@@H]3CC=C4C[C@@H](OS(=O)(=O)O)CC[C@]4(C)[C@H]3CC[C@]12C; experiment: purified protein, by the assay type; conditions: other: compound as substrate, 37.0 °C
Protocol: as §1, §2

Protein	Km ([1]; Δ(2-50) CYP46A1)	kcat ([1]; Δ(2-50) CYP46A1)	kcat/Km ([1]; Δ(2-50) CYP46A1)	Km ([2]; Δ(2-50) CYP46A1)	Km ([1]; Full-length CYP46A1)	kcat ([1]; Full-length CYP46A1)	kcat/Km ([1]; Full-length CYP46A1)	Km ([2]; Full-length CYP46A1)
Δ(2-50)CYP46A1dH (Homo sapiens) (protein) MKKDEVGGRVLQDVFLDWAKKYGPVVRVNVFHKTSVIVTSPESVKKFLMSTKYNKDSKMYRALQTVFGERLFGQGLVSECNYERWHKQRRVIDLAFSRSSLVSLMETFNEKAEQLVEILEAKADGQTPVSMQDMLTYTAMDILAKAAFGMETSMLLGAQKPLSQAVKLMLEGITASRNTLAKFLPGKRKQLREVRESIRFLRQVGRDWVQRRREALKRGEEVPADILTQILKAEEGAQDDEGLLDNFVTFFIAGHETSANHLAFTVMELSRQPEIVARLQAEVDEVIGSKRYLDFEDLGRLQYLSQVLKESLRLYPPAWGTFRLLEEETLIDGVRVPGNTPLLFSTYVMGRMDTYFEDPLTFNPDRFGPGAPKPRFTYFPFSLGHRSCIGQQFAQMEVKVVMAKLLQRLEFRLVPGQRFGLQEQATLKPLDPVLCTLRPRGWQPAPPPPPC	7.7 µM	0.43 min⁻¹	1000 M⁻¹ s⁻¹	3.3 µM				
full-length CYP46A1 (Homo sapiens) (protein) MSPGLLLLGSAVLLAFGLCCTFVHRARSRYEHIPGPPRPSFLLGHLPCFWKKDEVGGRVLQDVFLDWAKKYGPVVRVNVFHKTSVIVTSPESVKKFLMSTKYNKDSKMYRALQTVFGERLFGQGLVSECNYERWHKQRRVIDLAFSRSSLVSLMETFNEKAEQLVEILEAKADGQTPVSMQDMLTYTAMDILAKAAFGMETSMLLGAQKPLSQAVKLMLEGITASRNTLAKFLPGKRKQLREVRESIRFLRQVGRDWVQRRREALKRGEEVPADILTQILKAEEGAQDDEGLLDNFVTFFIAGHETSANHLAFTVMELSRQPEIVARLQAEVDEVIGSKRYLDFEDLGRLQYLSQVLKESLRLYPPAWGTFRLLEEETLIDGVRVPGNTPLLFSTYVMGRMDTYFEDPLTFNPDRFGPGAPKPRFTYFPFSLGHRSCIGQQFAQMEVKVVMAKLLQRLEFRLVPGQRFGLQEQATLKPLDPVLCTLRPRGWQPAPPPPPC					5.4 µM	0.11^2 min^−1	330 M⁻¹ s⁻¹	4.9 µM
